Results from patent US20140148387A1.

Columns and labels:
[1] = target: T1, activine type IIB receptor (ActRIIB) extracellular domain; assay: SPR, BIAcore 2000; analyte Ala-BMP-2, ligand ActRIIBecd; redissolved freeze-dried preparation at start of test
T1 sequence (Q13705 19-137, species assumed, looked up): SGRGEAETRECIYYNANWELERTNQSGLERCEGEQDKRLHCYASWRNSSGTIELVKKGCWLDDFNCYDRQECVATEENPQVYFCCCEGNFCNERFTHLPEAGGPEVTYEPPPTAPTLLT

[2] = target: T1, activine type IIB receptor (ActRIIB) extracellular domain; assay: SPR, BIAcore 2000; analyte Ala-BMP-2, ligand ActRIIBecd; freeze-dried preparation preserved at 40 ± 2° C., relative humidity 75 ± 5%, for 3 months
[3] = target: T1, activine type IIB receptor (ActRIIB) extracellular domain; assay: SPR, BIAcore 2000; analyte Ala-BMP-2, ligand ActRIIBecd; freeze-dried preparation preserved at 25 ± 2° C., relative humidity 60 ± 5%, for 3 months
[4] = target: T1, activine type IIB receptor (ActRIIB) extracellular domain; assay: SPR, BIAcore 2000; analyte Ala-BMP-2, ligand ActRIIBecd; freeze-dried preparation preserved at 5 ± 3° C. for 3 months

- Biacore assay, relative value to provisional reference substance of Ala-BMP-2 as 100% [1]: 98.2%
- Biacore assay, relative value to provisional reference substance of Ala-BMP-2 as 100% [2]: 97.7%
- Biacore assay, relative value to provisional reference substance of Ala-BMP-2 as 100% [3]: 98.9%
- Biacore assay, relative value to provisional reference substance of Ala-BMP-2 as 100% [4]: 100%
B1: active type human bone morphogenetic protein-2 homodimer added with an alanine residue to the N-terminus (ligand)
chain: AQAKHKQRKRLKSSCKRHPLYVDFSDVGWNDWIVAPPGYHAFYCHGECPFPLADHLNSTNHAIVQTLVNSVNSKIPKACCVPTELSAISMLYLDENEKVVLKNYQDMVVEGCGCR
